# Experiments:
# [1] = system: T1, CaRGC (homodimeric, full-length); assay: cGMP by reverse-phase HPLC, Hill fit, crude membranes; assay type: biochemical, Catenaria anguillulae; conditions: light-triggered; 10 mM MgCl2; HEPES pH 7.4
# T1 construct: homodimer; crude membrane fraction (HEK293T); gene as used in Scheib et al 2018
# [2] = substrate: Nc1nc2c(ncn2[C@@H]2O[C@H](COP(=O)(O)OP(=O)(O)OP(=O)(O)O)[C@@H](O)[C@H]2O)c(=O)[nH]1; assay: cGMP by reverse-phase HPLC, Hill fit; assay type: biochemical, Rhizoclosmatium globosum; conditions: GTP:MnCl2 1:2
Molecule,Km ([2]; equimolar mixture) [µM],further results
Nc1nc2c(ncn2[C@@H]2O[C@H](COP(=O)(O)OP(=O)(O)OP(=O)(O)O)[C@@H](O)[C@H]2O)c(=O)[nH]1 [GTP],–,Km [1]: 470 ± 50 µM
"RGC1-cat (Rhizoclosmatium globosum) (protein, soluble catalytic domain aa 365-551, C-terminal His-tag, E. coli ArcticExpress (DE3), 24,997 g/mol, homodimer) NGAEEYASVTVFFSDITNFVALSGKSSTKDMLATLNKLWVEYDVICKRWGVYKVETIGDAFLGVVGAPDRIPDHAERAANFAIDVIRMVQDFRTVNDEEIVTRIGLNSGPITAGILGDSNPHWCIVGDAVNTASRMESTSKPMRIHISENTYKLINGKGFKLEGPDVMNIKGKGTMNTYWINGRG",–,Km [2]: 5530 µM
"RGC1-cat/NeoR-cat (Rhizoclosmatium globosum) (protein, equimolar mixture of purified C-terminally His-tagged catalytic domains (E. coli); heterodimer, some RGC1-cat homodimer remains) chain 1: NGAEEYASVTVFFSDITNFVALSGKSSTKDMLATLNKLWVEYDVICKRWGVYKVETIGDAFLGVVGAPDRIPDHAERAANFAIDVIRMVQDFRTVNDEEIVTRIGLNSGPITAGILGDSNPHWCIVGDAVNTASRMESTSKPMRIHISENTYKLINGKGFKLEGPDVMNIKGKGTMNTYWINGRG chain 2: TGAEEYSCVTVFFSDIANFTPLSQRTSTKDMLASLNNMWIEYDKISKKWGMYKVETIGDAFLGVVGAPDRVPDHAERAAEFSIDIIDMIKDFRLVTGEPIQIRAGLNSGPVTAGILGESNPHWCIVGDTVTIASKMEATSKHMKIHIAESTFNLIKSSGKFRTSDSEPVTIKGNVINTFFIEGRA",1540,–
"RGC2-cat/NeoR-cat (Rhizoclosmatium globosum) (protein, equimolar mixture of purified C-terminally His-tagged catalytic domains (E. coli); heterodimer) chain 1: ATGSEEYSSVTVFFSDVTNFHALSNKNSTKEMLATLNKLWIEYDVICKRWGVYKVETIGDAFLGVVGAPERVPDHAERAANFAVDVISMVQDFRTDKGEELITRVGLNSGPITAGILGDSNPHWCIVGDAVNTASRMESTSKPMRIHISENTYKLIKNKGFRLEGPDVMNIKGKGTMNTYWINGRS chain 2: TGAEEYSCVTVFFSDIANFTPLSQRTSTKDMLASLNNMWIEYDKISKKWGMYKVETIGDAFLGVVGAPDRVPDHAERAAEFSIDIIDMIKDFRLVTGEPIQIRAGLNSGPVTAGILGESNPHWCIVGDTVTIASKMEATSKHMKIHIAESTFNLIKSSGKFRTSDSEPVTIKGNVINTFFIEGRA",980,–
